Experimental data taken from patent publication US20170008943A1 (Novo Nordisk, published 2017).
*1 amine or outer side, *2 acyl side, *3 side chain or, on linkers, in order; H or OH if unused. Side-chain parts run from the residue outwards. [ ]: non-standard residue; d: D form. The star is where a group is joined. γGlu = O=C(O)[C@H](CCC(=O)[*:2])N[*:1]; Desaminohistidyl = O=C(CCc1c[nH]cn1)*; Aib = CC(C)(N)C(=O)O

B1: N^ε24-[(4S)-4-[[(4S)-4-[[(4S)-4-[[(4S)-4-acetamido-4-carboxybutanoyl]amino]-4-carboxybutanoyl]amino]-4-carboxybutanoyl]amino]-4-carboxybutanoyl]-[Imp1, His3, … (peptide)
peptide: [Desaminohistidyl]SHGTFTSDYSKYLESRRAQEFVK([γGlu-γGlu-γGlu-γGlu-Ac])WLLST-OH
SMILES: CC(=O)N[C@@H](CCC(=O)N[C@@H](CCC(=O)N[C@@H](CCC(=O)N[C@@H](CCC(=O)NCCCC[C@H](NC(=O)[C@@H](NC(=O)[C@H](Cc1ccccc1)NC(=O)[C@H](CCC(=O)O)NC(=O)[C@H](CCC(N)=O)NC(=O)[C@H](C)NC(=O)[C@H](CCCNC(=N)N)NC(=O)[C@H](CCCNC(=N)N)NC(=O)[C@H](CO)NC(=O)[C@H](CCC(=O)O)NC(=O)[C@H](CC(C)C)NC(=O)[C@H](Cc1ccc(O)cc1)NC(=O)[C@H](CCCCN)NC(=O)[C@H](CO)NC(=O)[C@H](Cc1ccc(O)cc1)NC(=O)[C@H](CC(=O)O)NC(=O)[C@H](CO)NC(=O)[C@@H](NC(=O)[C@H](Cc1ccccc1)NC(=O)[C@@H](NC(=O)CNC(=O)[C@H](Cc1c[nH]cn1)NC(=O)[C@H](CO)NC(=O)CCc1c[nH]cn1)[C@@H](C)O)[C@@H](C)O)C(C)C)C(=O)N[C@@H](Cc1c[nH]c2ccccc12)C(=O)N[C@@H](CC(C)C)C(=O)N[C@@H](CC(C)C)C(=O)N[C@@H](CO)C(=O)N[C@H](C(=O)O)[C@@H](C)O)C(=O)O)C(=O)O)C(=O)O)C(=O)O
notes: Imp written X under substitutions
B2: N^ε24-[(4S)-4-[[(4S)-4-[[(4S)-4-[[(4S)-4-acetamido-4-carboxybutanoyl]amino]-4-carboxybutanoyl]amino]-4-carboxybutanoyl]amino]-4-carboxybutanoyl]-[Imp1, Aib2, … (peptide)
peptide: [Desaminohistidyl][Aib]HGTFTSDYSKYLESRRAQDFVK([γGlu-γGlu-γGlu-γGlu-Ac])WLLST-OH
SMILES: CC(=O)N[C@@H](CCC(=O)N[C@@H](CCC(=O)N[C@@H](CCC(=O)N[C@@H](CCC(=O)NCCCC[C@H](NC(=O)[C@@H](NC(=O)[C@H](Cc1ccccc1)NC(=O)[C@H](CC(=O)O)NC(=O)[C@H](CCC(N)=O)NC(=O)[C@H](C)NC(=O)[C@H](CCCNC(=N)N)NC(=O)[C@H](CCCNC(=N)N)NC(=O)[C@H](CO)NC(=O)[C@H](CCC(=O)O)NC(=O)[C@H](CC(C)C)NC(=O)[C@H](Cc1ccc(O)cc1)NC(=O)[C@H](CCCCN)NC(=O)[C@H](CO)NC(=O)[C@H](Cc1ccc(O)cc1)NC(=O)[C@H](CC(=O)O)NC(=O)[C@H](CO)NC(=O)[C@@H](NC(=O)[C@H](Cc1ccccc1)NC(=O)[C@@H](NC(=O)CNC(=O)[C@H](Cc1c[nH]cn1)NC(=O)C(C)(C)NC(=O)CCc1c[nH]cn1)[C@@H](C)O)[C@@H](C)O)C(C)C)C(=O)N[C@@H](Cc1c[nH]c2ccccc12)C(=O)N[C@@H](CC(C)C)C(=O)N[C@@H](CC(C)C)C(=O)N[C@@H](CO)C(=O)N[C@H](C(=O)O)[C@@H](C)O)C(=O)O)C(=O)O)C(=O)O)C(=O)O
notes: Imp and Aib written X under substitutions
B3: N^ε24-[(4S)-4-[[(4S)-4-[[(4S)-4-[[(4S)-4-acetamido-4-carboxybutanoyl]amino]-4-carboxybutanoyl]amino]-4-carboxybutanoyl]amino]-4-carboxybutanoyl]-[Imp1, Aib2, … (peptide)
peptide: [Desaminohistidyl][Aib]HGTFTSDYSKYLDLRRAQDFVK([γGlu-γGlu-γGlu-γGlu-Ac])WLLST-OH
SMILES: CC(=O)N[C@@H](CCC(=O)N[C@@H](CCC(=O)N[C@@H](CCC(=O)N[C@@H](CCC(=O)NCCCC[C@H](NC(=O)[C@@H](NC(=O)[C@H](Cc1ccccc1)NC(=O)[C@H](CC(=O)O)NC(=O)[C@H](CCC(N)=O)NC(=O)[C@H](C)NC(=O)[C@H](CCCNC(=N)N)NC(=O)[C@H](CCCNC(=N)N)NC(=O)[C@H](CC(C)C)NC(=O)[C@H](CC(=O)O)NC(=O)[C@H](CC(C)C)NC(=O)[C@H](Cc1ccc(O)cc1)NC(=O)[C@H](CCCCN)NC(=O)[C@H](CO)NC(=O)[C@H](Cc1ccc(O)cc1)NC(=O)[C@H](CC(=O)O)NC(=O)[C@H](CO)NC(=O)[C@@H](NC(=O)[C@H](Cc1ccccc1)NC(=O)[C@@H](NC(=O)CNC(=O)[C@H](Cc1c[nH]cn1)NC(=O)C(C)(C)NC(=O)CCc1c[nH]cn1)[C@@H](C)O)[C@@H](C)O)C(C)C)C(=O)N[C@@H](Cc1c[nH]c2ccccc12)C(=O)N[C@@H](CC(C)C)C(=O)N[C@@H](CC(C)C)C(=O)N[C@@H](CO)C(=O)N[C@H](C(=O)O)[C@@H](C)O)C(=O)O)C(=O)O)C(=O)O)C(=O)O
notes: Imp and Aib are written X under substitutions because they have no one-letter code
B4: N^ε28-[(4S)-4-[[(4S)-4-[[(4S)-4-[[(4S)-4-acetamido-4-carboxybutanoyl]amino]-4-carboxybutanoyl]amino]-4-carboxybutanoyl]amino]-4-carboxybutanoyl]-[Imp1, Aib2, … (peptide)
peptide: [Desaminohistidyl][Aib]HGTFTSDYSKYLESRRAQDFVAWLLK([γGlu-γGlu-γGlu-γGlu-Ac])T-OH
SMILES: CC(=O)N[C@@H](CCC(=O)N[C@@H](CCC(=O)N[C@@H](CCC(=O)N[C@@H](CCC(=O)NCCCC[C@H](NC(=O)[C@H](CC(C)C)NC(=O)[C@H](CC(C)C)NC(=O)[C@H](Cc1c[nH]c2ccccc12)NC(=O)[C@H](C)NC(=O)[C@@H](NC(=O)[C@H](Cc1ccccc1)NC(=O)[C@H](CC(=O)O)NC(=O)[C@H](CCC(N)=O)NC(=O)[C@H](C)NC(=O)[C@H](CCCNC(=N)N)NC(=O)[C@H](CCCNC(=N)N)NC(=O)[C@H](CO)NC(=O)[C@H](CCC(=O)O)NC(=O)[C@H](CC(C)C)NC(=O)[C@H](Cc1ccc(O)cc1)NC(=O)[C@H](CCCCN)NC(=O)[C@H](CO)NC(=O)[C@H](Cc1ccc(O)cc1)NC(=O)[C@H](CC(=O)O)NC(=O)[C@H](CO)NC(=O)[C@@H](NC(=O)[C@H](Cc1ccccc1)NC(=O)[C@@H](NC(=O)CNC(=O)[C@H](Cc1c[nH]cn1)NC(=O)C(C)(C)NC(=O)CCc1c[nH]cn1)[C@@H](C)O)[C@@H](C)O)C(C)C)C(=O)N[C@H](C(=O)O)[C@@H](C)O)C(=O)O)C(=O)O)C(=O)O)C(=O)O
notes: as for B2
B5: N^ε24-[(4S)-4-[[(4S)-4-[[(4S)-4-[[(4S)-4-acetamido-4-carboxybutanoyl]amino]-4-carboxybutanoyl]amino]-4-carboxybutanoyl]amino]-4-carboxybutanoyl]-[Imp1, Aib2, … (peptide)
peptide: [Desaminohistidyl][Aib]HGTFTSDYSKYLESRRAQEFVK([γGlu-γGlu-γGlu-γGlu-Ac])WLLST-OH
SMILES: CC(=O)N[C@@H](CCC(=O)N[C@@H](CCC(=O)N[C@@H](CCC(=O)N[C@@H](CCC(=O)NCCCC[C@H](NC(=O)[C@@H](NC(=O)[C@H](Cc1ccccc1)NC(=O)[C@H](CCC(=O)O)NC(=O)[C@H](CCC(N)=O)NC(=O)[C@H](C)NC(=O)[C@H](CCCNC(=N)N)NC(=O)[C@H](CCCNC(=N)N)NC(=O)[C@H](CO)NC(=O)[C@H](CCC(=O)O)NC(=O)[C@H](CC(C)C)NC(=O)[C@H](Cc1ccc(O)cc1)NC(=O)[C@H](CCCCN)NC(=O)[C@H](CO)NC(=O)[C@H](Cc1ccc(O)cc1)NC(=O)[C@H](CC(=O)O)NC(=O)[C@H](CO)NC(=O)[C@@H](NC(=O)[C@H](Cc1ccccc1)NC(=O)[C@@H](NC(=O)CNC(=O)[C@H](Cc1c[nH]cn1)NC(=O)C(C)(C)NC(=O)CCc1c[nH]cn1)[C@@H](C)O)[C@@H](C)O)C(C)C)C(=O)N[C@@H](Cc1c[nH]c2ccccc12)C(=O)N[C@@H](CC(C)C)C(=O)N[C@@H](CC(C)C)C(=O)N[C@@H](CO)C(=O)N[C@H](C(=O)O)[C@@H](C)O)C(=O)O)C(=O)O)C(=O)O)C(=O)O
notes: as for B2
B6: N^ε24-[(4S)-4-[[(4S)-4-[[(4S)-4-[[(4S)-4-acetamido-4-carboxybutanoyl]amino]-4-carboxybutanoyl]amino]-4-carboxybutanoyl]amino]-4-carboxybutanoyl]-[Imp1, Aib2, … (peptide)
peptide: [Desaminohistidyl][Aib]HGTFTSDYSKYLDVRRAQDFVK([γGlu-γGlu-γGlu-γGlu-Ac])WLLST-OH
SMILES: CC(=O)N[C@@H](CCC(=O)N[C@@H](CCC(=O)N[C@@H](CCC(=O)N[C@@H](CCC(=O)NCCCC[C@H](NC(=O)[C@@H](NC(=O)[C@H](Cc1ccccc1)NC(=O)[C@H](CC(=O)O)NC(=O)[C@H](CCC(N)=O)NC(=O)[C@H](C)NC(=O)[C@H](CCCNC(=N)N)NC(=O)[C@H](CCCNC(=N)N)NC(=O)[C@@H](NC(=O)[C@H](CC(=O)O)NC(=O)[C@H](CC(C)C)NC(=O)[C@H](Cc1ccc(O)cc1)NC(=O)[C@H](CCCCN)NC(=O)[C@H](CO)NC(=O)[C@H](Cc1ccc(O)cc1)NC(=O)[C@H](CC(=O)O)NC(=O)[C@H](CO)NC(=O)[C@@H](NC(=O)[C@H](Cc1ccccc1)NC(=O)[C@@H](NC(=O)CNC(=O)[C@H](Cc1c[nH]cn1)NC(=O)C(C)(C)NC(=O)CCc1c[nH]cn1)[C@@H](C)O)[C@@H](C)O)C(C)C)C(C)C)C(=O)N[C@@H](Cc1c[nH]c2ccccc12)C(=O)N[C@@H](CC(C)C)C(=O)N[C@@H](CC(C)C)C(=O)N[C@@H](CO)C(=O)N[C@H](C(=O)O)[C@@H](C)O)C(=O)O)C(=O)O)C(=O)O)C(=O)O
notes: as for B2
B7: N^ε24-[(4S)-4-[[(4S)-4-[[(4S)-4-[[(4S)-4-acetamido-4-carboxybutanoyl]amino]-4-carboxybutanoyl]amino]-4-carboxybutanoyl]amino]-4-carboxybutanoyl]-[Imp1, Aib2, … (peptide)
peptide: [Desaminohistidyl][Aib]HGTFTSDLSKYLESRRAQDFVK([γGlu-γGlu-γGlu-γGlu-Ac])WLLST-OH
SMILES: CC(=O)N[C@@H](CCC(=O)N[C@@H](CCC(=O)N[C@@H](CCC(=O)N[C@@H](CCC(=O)NCCCC[C@H](NC(=O)[C@@H](NC(=O)[C@H](Cc1ccccc1)NC(=O)[C@H](CC(=O)O)NC(=O)[C@H](CCC(N)=O)NC(=O)[C@H](C)NC(=O)[C@H](CCCNC(=N)N)NC(=O)[C@H](CCCNC(=N)N)NC(=O)[C@H](CO)NC(=O)[C@H](CCC(=O)O)NC(=O)[C@H](CC(C)C)NC(=O)[C@H](Cc1ccc(O)cc1)NC(=O)[C@H](CCCCN)NC(=O)[C@H](CO)NC(=O)[C@H](CC(C)C)NC(=O)[C@H](CC(=O)O)NC(=O)[C@H](CO)NC(=O)[C@@H](NC(=O)[C@H](Cc1ccccc1)NC(=O)[C@@H](NC(=O)CNC(=O)[C@H](Cc1c[nH]cn1)NC(=O)C(C)(C)NC(=O)CCc1c[nH]cn1)[C@@H](C)O)[C@@H](C)O)C(C)C)C(=O)N[C@@H](Cc1c[nH]c2ccccc12)C(=O)N[C@@H](CC(C)C)C(=O)N[C@@H](CC(C)C)C(=O)N[C@@H](CO)C(=O)N[C@H](C(=O)O)[C@@H](C)O)C(=O)O)C(=O)O)C(=O)O)C(=O)O
notes: as for B2

The binders below were run against T1, human glucagon receptor (human, UniProt P47871 26-477) (assay: cell-based or functional assay).
T1 sequence (P47871 26-477): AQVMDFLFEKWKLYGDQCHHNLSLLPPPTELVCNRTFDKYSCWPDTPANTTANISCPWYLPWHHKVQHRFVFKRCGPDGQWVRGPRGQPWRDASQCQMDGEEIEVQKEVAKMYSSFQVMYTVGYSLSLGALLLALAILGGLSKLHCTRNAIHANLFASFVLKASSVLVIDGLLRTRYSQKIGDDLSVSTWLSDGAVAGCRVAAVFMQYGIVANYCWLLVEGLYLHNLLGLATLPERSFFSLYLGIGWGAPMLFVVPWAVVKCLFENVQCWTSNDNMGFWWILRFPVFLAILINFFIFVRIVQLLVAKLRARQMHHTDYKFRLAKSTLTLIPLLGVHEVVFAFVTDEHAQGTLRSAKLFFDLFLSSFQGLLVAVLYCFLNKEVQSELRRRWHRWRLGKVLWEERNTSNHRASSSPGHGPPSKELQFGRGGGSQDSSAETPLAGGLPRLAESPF

Binder | EC50 hGlucagonR (pM), CRE luciferase reporter in BHK cells
B1 | 4.7 pM
B2 | 5 pM
B3 | 1 pM
B4 | 5 pM
B5 | 2 pM
B6 | 2 pM
B7 | 10 pM

Each binder was assayed against T1, human glucagon receptor (assay: displacement of 125I-glucagon from BHK membranes with human glucagon receptor (SPA), Assay (II)(b)).

Binder | IC50
B1 | 1.8 nM
B2 | 1.9 nM
B3 | 0.2 nM
B4 | 1.8 nM
B5 | 1 nM
B6 | 0.5 nM
B7 | 4.9 nM
